# Source: publication PMC4973843, “Dimeric chlorite dismutase from the nitrogen‐fixing cyanobacterium C yanothece sp. PCC7425” (Molecular Microbiology, 2015)
# Substrate: [O-][Cl+]O
# Assay: Clark-type oxygen electrode, O2 release
# Assay type: biochemical, Cyanothece sp. PCC 7425
# Settings: 50 mM citrate phosphate pH 5.0, 30°C
protein,measurement,value
"CCld (chlorite dismutase from Cyanothece sp. PCC7425) (Cyanothece sp. PCC 7425) (protein, heme b) NNRYSFIGGRTGQWQVVKIRNVLGPGLQLVEKVNILNGAVAEIPLDSAWRLQGFASNIRYAIRTELEALQAVQPMLNRAEAILAVLIPIKKSAQWWEMAQDERRDIFERESHHTAVGLEYLPGVARRLLHCRDLGEEFDFLTWFEFAPEHSSAFNELLLRMRASKEWEYVEREVEVWLKRL",Km,162 ± 10.0 µM
same,kcat,1144 ± 23.8 s⁻¹
